{"source": "paper PMC4395114", "about": "(PLoS Pathogens, 2015)", "proteins": {"B1": {"name": "RNA-free recombinant WT NP (NΔ7NP, C-terminal His tag), influenza A/WSN/33 (natural protein)", "chain": "RSYEQMETDGERQNATEIRASVGKMIGGIGRFYIQMCTELKLSDYEGRLIQNSLTIERMVLSAFDERRNKYLEEHPSAGKDPKKTGGPIYRRVDGKWMRELILYDKEEIRRIWRQANNGDDATAGLTHMMIWHSNLNDATYQRTRALVRTGMDPRMCSLMQGSTLPRRSGAAGAAVKGVGTMVMELIRMIKRGINDRNFWRGENGRRTRIAYERMCNILKGKFQTAAQRAMVDQVRESRNPGNAEFEDLIFLARSALILRGSVAHKSCLPACVYGPAVASGYDFEREGYSLVGIDPFRLLQNSQVYSLIRPNENPAHKSQLVWMACHSAAFEDLRVSSFIRGTKVVPRGKLSTRGVQIASNENMETMESSTLELRSRYWAIRTRSGGNTNQQRASSGQISIQPTFSVQRNLPFDRPTIMAAFTGNTEGRTSDMRTEIIRLMESARPEDVSFQGRGVFELSDEKAASPIVPSFDMSNEGSYFFGDNAEEYDN"}}, "biological_target": "the molecule itself", "assay": "SEC + other: negative stain electron microscopy", "data": [{"protein": "B1", "values": [{"measurement": "stoichiometry N", "result": "3 to 6"}]}]}
